This note sets out measurements from paper PMC11519345, “Structural variation of types IV-A1- and IV-A3-mediated CRISPR interference”.

The target of this series is Type IV-A1 effector complex (Cas5-Cas8-Cas7-Cas6 crRNP), DinG-free;DinG (CasDinG, Csf4) type IV-A1 (Pseudomonas oleovorans;Pseudomonas …, UniProt A0A379PL53;A0A379PIR4;A0A379PIR9;A0A379PNK2;A0A379PL92 …, |). As to the kind of experiment: cryo-EM; crRNA; DinG bound; PDB code not assigned in the material; EMSA: 10 mM HEPES pH 7.5, 150 mM NaCl, 1 nM DNA, on ice then 20 min RT, 6% native PAGE in TBE at 4 C; cryo-EM: 10 uM complex + 15 uM DNA in the same buffer, 10. The settings on record: protein: recombinant;recombinant; tags: His6 C-terminal on Cas8;; copies: 1;1;5;1;1; bubble: non-complementary protospacer, paired 15 nt and 14+ nt ends. A general note: Mobility shift assays separate free from complexed probe on a gel.

B1: Type IV-A1 bubbled target DNA (TS/NTS) for cryo-EM (dsDNA)
DNA 1: CGGTCGGGTCATACGTCGCGTCTCGAATCTGATGCGTAACTTGGATGCTTCGTGCGTGATG
DNA 2: CATCACGCACGAAGACCAAGTCAATGCTTAGTCTAATACCTGCGCTCGTATGACCCGACCG
For B1, the binding result was “binds”.
